Test results as given in US12312417B2, “Binding proteins 1” (Nucleus Therapeutics Pty. Ltd., priority 2017, dated 2025).

Legend:
DLD1 colon cancer cells = assay: Alkaline phosphatase-based survey of nuclear penetration; type: cell-based; conditions: cells treated for one hour; right shift of histogram peak
Experimental: DLD1 colon cancer cells were treated with control media or each of the indicated variants for one hour. Cells were then washed, fixed, blocked with 1% BSA-TBST, and then probed with protein L for one hour. Cells were then washed and incubated with an anti-protein L primary antibody for one hour. After another round of washing cells were incubated with an alkaline phosphatase-conjugated secondary antibody for one hour. Finally, cells were washed and signal was developed by addition of NBT/BCIP. Dark stain indicates location of the variants.
Raw integrated density values reflecting nuclear alkaline phosphatase staining in the DLD1 cells from the experiment in FIG. 3 were obtained by analysis using ImageJ Boxplots of distributions of values are presented for each variant in FIG. 4.
Histogram plots of cell counts versus nuclear staining intensity (represented as reciprocal intensity in arbitrary units) are shown in FIG. 5.

[1] = test system: PTEN-deficient U251 human glioma cells; assay: Phospho-53BP1 foci accumulation (DNA damage); type: cell-based; conditions: for mean number of phospho-53BP1 foci per cell: PTEN-deficient U251
Experimental: A matched pair of PTEN-proficient and deficient U251 human glioma cells were treated with control media or media containing Variant 10, 11, 13, 15, or 16 for twenty-four hours. Cells were then washed, fixed, blocked, and then probed with an anti-phospho-53BP1 antibody overnight. Cells were then washed and incubated with an AlexaFluor555-conjugated secondary antibody. Finally, cells were washed, counterstained with DAPI, and visualized under a fluorescence microscope. Images were saved and evaluated by CellProfiler to determine mean number of phospho-53BP1 foci per cell.
(§1) A matched pair of BRCA2-proficient and deficient DLD1 colon cancer cells and PTEN-proficient and deficient U251 human glioma cells were treated with control media or media containing 10 μM di-scFv variant 13 (SEQ ID NO: 41), 5 nM olaparib, or combination treatment.

[2] = test system: PTEN-deficient U87 human glioma cells; assay: Cell viability by Trypan blue exclusion assay; type: cell-based; conditions: 7 days after treatment; relative to control treated cells
Experimental: Cell viability of PTEN-deficient U87 human glioma cells was also assessed following treatment with control media or media containing Variants 10, 13, 15, or 16. Cell viability was determined 7 days after treatment using Trypan blue exclusion assay and by direct visualization of cell morphology by light microscopy.

[3] = test system: BRCA2-deficient DLD1 colon cancer cells; assay: Cell viability by Trypan blue exclusion assay; type: cell-based; conditions: 7 days later
Experimental: (§2) Next, a matched pair of BRCA2-proficient and deficient DLD1 colon cancer cells was treated with control media or media containing Variants 10, 13, 15, or 16. Cell viability was determined 7 days later by Trypan blue exclusion assay and by direct visualization of cell morphology by light microscopy. […] Representative light microscope images shown the changes in morphology in the BRCA2-deficient cancer cells treated with the variants are shown in FIG. 10, Panel A. Quantitative analysis of the cell survival by Trypan blue exclusion assay is shown in FIG. 10, Panel B.

[4] = test system: BRCA2-proficient DLD1 colon cancer cells; assay: Cell viability by Trypan blue exclusion assay; type: cell-based; conditions: 7 days later
Experimental: as §2

DLD-1 cells = assay: Nuclear penetration by protein L immunostain of fixed cells; type: cell-based
Experimental: (§3) DLD-1 and MCF-7 cells were treated with control or di-scFv (SEQ ID NO: 41), and nuclear penetration was evaluated by protein L immunostain of fixed cells.

MCF-7 cells = assay: as above; type: cell-based
Experimental: as §3

[5] = test system: HDR-proficient DLD1 cells; assay: Cell death in HDR-proficient cells, di-scFv with PARP inhibitor; type: cell-based; conditions: 5 nM olaparib, 10 μM di-scFv, or both
Experimental: Homology-directed repair (HDR) deficient BRCA2-DLD1 cells and PTEN-U251 cells were treated with control, 5 nM olaparib, 10 μM di-scFv, or 10 μM di-scFv+5 nM olaparib. Surviving fraction was determined by colony formation assay.
It was then determined whether the combination of di-scFv and olaparib is simply universally cytotoxic, regardless of DNA repair status. To evaluate this possibility, HDR-proficient DLD1 cells were treated with the above regimen to confirm selectivity of combination therapy to HDR-deficient malignant cells.

[6] = test system: Primary human glioblastoma (GBM) cancer cells; assay: Live cells by trypan blue staining in primary GBM explants; type: cell-based; conditions: seven patient explants; percentage of live cells by trypan blue
Experimental: Primary human glioblastoma (GBM) cancer cells extracted from primary human GBM tumours from patients were treated with control or di-scFv (SEQ ID NO: 41), and percentage of live cells was evaluated by trypan blue staining.

[7] = test system: human GBM cancer stem cells (CSCs) grown as tumour spheres; assay: GBM tumour sphere penetration and sphere volume; type: cell-based
Experimental: GBM cancer stem cells extracted from primary human GBM tumours from patients and grown as spheres were treated with control or di-scFv (SEQ ID NO: 41), and the effect of dose and incubation time on reduction of sphere volume was evaluated by confocal micrographs of DX1-rhodamine cellular penetration into GBM cells. Tumour spheres are recognised as a useful tool for pre-clinical studies as they retain tumour heterogeneity and more closely represent the original patient tumour.

[8] = test system: GBM cells extracted from human GBM tumours; assay: Orthotopic mouse model of GBM; type: in vivo
Experimental: An orthotopic mouse model of GBM was generated by intracranial injection of GBM cells extracted from human GBM tumours. Once the tumours developed in the brain, mice were treated by tail vein injection of control or di-scFv variant 13 (SEQ ID NO: 41), and effect of di-scFv on reduction of tumour volume was evaluated by extraction of tumours. […] To confirm this, tumours and normal brain were probed for di-scFv by protein L immunostaining.
Mean survival data reflected these trends (83 days±3.2 days for di-scFv treated mice, 71 days±1.2 days for controls) (FIG. 16E). Statistical analysis indicated a significant difference between the two groups, with P value=0.004.

[9] = test system: BRCA2-deficient DLD1 colon cancer cells; assay: Phospho-53BP1 foci accumulation; type: cell-based
Experimental: as §1

B1: Variant 13: cell penetrating anti-DNA humanized di-scFv, SEQ ID NO: 41 (protein)
scFv: DIQMTQSPSSLSASLGDRATITCRASKTVSTSSYSYMHWYQQKPGQPPKLLIKYASYLESGVPSRFSGSGSGTDFTLTISSLQPEDAATYYCQHSREFPWTFGGGTKVEIKRADAAPGGGGSGGGGSGGGGSEVQLVESGGGLVQPGGSLRLSCAASGFTFSNYGMHWVRQAPGKGLEWVSYISSGSSTIYYADSVKGRFTISRDNAKNSLYLQMNSLRAEDTAVYYCARRGLLLDYWGQGTTVTVSSASTKGPSVFPLAPLESSGSDIQMTQSPSSLSASLGDRATITCRASKTVSTSSYSYMHWYQQKPGQPPKLLIKYASYLESGVPSRFSGSGSGTDFTLTISSLQPEDAATYYCQHSREFPWTFGGGTKVEIKRADAAPGGGGSGGGGSGGGGSEVQLVESGGGLVQPGGSLRLSCAASGFTFSNYGMHWVRQAPGKGLEWVSYISSGSSTIYYADSVKGRFTISRDNAKNSLYLQMNSLRAEDTAVYYCARRGLLLDYWGQGTTVTVSS
modifications: Variant 13
For B1, the “nuclear penetration relative to the yeast prototype (histogram of cell counts versus nuclear staining intensity)” value (DLD1 colon cancer cells) was “notable right shift and narrowing of distributions”, the “percentage of P53BP1-positive cells” value ([1]; HDR-deficient U251, 24 hour) was “increased” and the “mean number of phospho-53BP1 foci per cell” value (from here on “mean number … per cell”) ([1]; 10 μM di-scFv, 5 nM olaparib) was “increased the number of phospho-53BP1 foci”. The “mean number … per cell” value ([1]; twenty-four hours, vs control media) was “increased the number of foci”, the cell viability [2] was “reductions in cell viability” and the “cell viability / toxicity” value [3] was “killed by the variants”. For the same molecule, the “cell viability / toxicity” value [4] was “not toxic”, the nuclear penetration (DLD-1 cells) was “successfully penetrated” and the nuclear penetration (MCF-7 cells) was “successfully penetrated”. For the same molecule, the cell death [5] was “No effect on cell death”, the “glioblastoma tumour explants showing significant cancer cell death” value [6] was “Five of the seven” and the “cellular penetration in GBM spheres” value ([7]; confocal micrographs, DX1-rhodamine) was “demonstrated cellular penetration in GBM spheres”. For the same molecule, the sphere volume ([7]; effect of dose and incubation time) was “reduced sphere volume in dose-dependent and time-dependant manner”, the median survival ([8]; group of 7 mice) was 87 days and the “median survival longer than controls” value ([8]; group of 7 mice, controls median 72 days) was “more than 20%”. For the same molecule, the “crossing of the blood brain barrier” value ([8]; mouse, in vivo) was “successfully crossed the blood brain barrier”, the “di-scFv in GBM tumour cells by protein L immunostaining” value ([8]; mouse, in vivo) was “detected in the nuclei of GBM tumour cells” and the “di-scFv in adjacent normal brain cells by protein L immunostaining” value ([8]; mouse, in vivo) was “not evident”. For the same molecule, the “toxicity or weight loss” value ([8]; survival study mice) was “No toxicity or weight loss”, the “TUNEL staining (incidence of apoptosis in tumours)” value ([8]; tail vein injection) was “increased incidence of apoptosis” and the “glioblastoma tumour size smaller than in control mice” value ([8]; tail vein injection, brain sections) was “more than 40%”. The “mean number … per cell” value ([9]; BRCA2-deficient DLD1, 10 μM di-scFv, 5 nM olaparib) was “increased the number of phospho-53BP1 foci” and the “percentage of P53BP1-positive cells” value ([9]; HDR-deficient DLD1, 24 hour) was “increased”.
